Source: patent US20220298254A1 (HUMMINGBIRD BIOSCIENCE HOLDINGS PTE, published 2022)
Where two headings read alike, the source gives them in different places.

What was measured:
human VISTA protein = human VISTA protein (human, UniProt Q9H7M9 33-194, limits assumed); experiment: ELISA on coated human VISTA protein
Experimental: (§1) 96-well plates (Nunc, Denmark) were coated with 1 μg/ml of human CD47 or VISTA protein in PBS, for 1 h at room temperature. Plates were blocked for 1 h at room temperature with 1% BSA in Tris buffer saline containing 0.05% Tween 20 (TBS-T). The test antigen-binding molecules were added at concentrations ranging from to 0.002 μg/ml to 200 μg/ml, and the plates were incubated at room temperature for 1 h. Plates were then washed three times with TBS-T, and were then incubated with a HRP-conjugated secondary antibody for 1 h at room temperature. After washing, plates were developed with colorimetric detection substrate 3,3′,5,5′-tetramethylbenzidine (Turbo-TMB; Pierce, USA). The reaction was stopped after 3.5 min with 2M […], and OD was measured at 450 nm.
In a separate ELISA, the antigen-binding molecules were evaluated for binding to human VISTA.

[1] = biological target: T1, human CD47 (recombinant protein, construct not stated) (human, UniProt Q08722 19-141); experiment: ELISA on coated human CD47
T1 construct: also called hCD47; human CD47 protein
Experimental: as §1

[2] = biological target: T2, untagged human CD47 protein (Sinobiological Inc) (human, UniProt Q08722 19-141); experiment: competition ELISA: inhibition of His-tagged SIRPα binding to coated human CD47
T2 construct: Bought

[3] = biological target: T1, human CD47 (recombinant protein, …); experiment: BLI (BLItz), IgG1 captured on anti-human Fc tips, human CD47 as analyte, 1:1 global fit
Experimental: (§2) Biosensors were first hydrated for at least 10 m in assay buffer (phosphate buffered saline) followed by buffer baseline for 60 s and loading of the human IgGs onto the biosensor tips at 25 nM for 120 s. The tips were then washed briefly for 60 s with the assay buffer to remove nonspecifically bound proteins or unbound IgGs for obtaining a second buffer baseline. The association phase of the IgGs with antigens (250 nM to 62.5 nM) was set up at 120 s which was followed by a dissociation phase (assay buffer alone) for 120 s. All the BLITz runs were measured at room temperature at a stirring speed of 1000 rpm and AHC biosensors were regenerated using 10 mM of glycine (pH 2.7) after the assay. Binding affinity between the immobilized antibodies on the AHC sensors and human CD47 were determined by analyzing the binding kinetic curves using the software BLItz Pro. All the sensorgrams were reference subtracted and globally fitted into a 1:1 model which analysed the binding curves at different concentrations of antigens and generated kinetic constants (KD/Ka/Kd) for the globally fitted data. All the binding curves were subjected to step correction which corrects the misalignment between association and dissociation steps and only the curves with R² values greater than 0.9 were used for analysis.

[4] = biological target: T1, human CD47 (recombinant protein, …); experiment: BLI (BLItz), IgG captured on anti-human IgG Fc (AHC) tips, human CD47 as analyte, global 1:1 fit
Experimental: as §2, with “Bio-Layer Interferometry (BLI) experiments were performed using a single channel BLItz system (ForteBio, Menlo Park, Calif.) using Anti-human immunoglobulin G (IgG) Fc (AHC) coated biosensor tips (Pall ForteBio, Menlo Park, Calif.) for capturing human IgGs. Biosensors” for “Biosensors”, “30” for “60”, “concentrations ranging from 25-50” for “25”, “(500 nM-0” for “(250 nM to 62.5”
(§3) The anti-CD47 antibody clones in IgG1 format were analyzed for binding affinity to human CD47.

[5] = biological target: T1, human CD47 (recombinant protein, …); experiment: BLI (BLItz), IgG1 captured on anti-human Fc tips, human CD47 as analyte, 1:1 global fit; remark: listed apart in the source
Experimental: Bio-Layer Interferometry (BLI) experiments were performed using a single channel BLItz system (ForteBio, Menlo Park, Calif.) using Anti-human immunoglobulin G (IgG) Fc (AHC) coated biosensor tips (Pall ForteBio, Menlo Park, Calif.) for capturing human IgGs. Biosensors were first hydrated for at least 10 m in assay buffer (phosphate buffered saline) followed by buffer baseline for 30 s and loading of the human IgGs onto the biosensor tips at concentrations ranging from 25-50 nM for 120 s. The tips were then washed briefly for 30 s with the assay buffer to remove nonspecifically bound proteins or unbound IgGs for obtaining a second buffer baseline. […] All the BLITz runs were measured at room temperature at a stirring speed of 1000 rpm and AHC biosensors were regenerated using 10 mM of glycine (pH 2.7) after the assay. Binding affinity between the immobilized antibodies on the AHC sensors and human CD47 were determined by analyzing the binding kinetic curves using the software BLItz Pro. All the sensorgrams were reference subtracted and globally fitted into a 1:1 model which analysed the binding curves at different concentrations of antigens and generated kinetic constants (KD/Ka/Kd) for the globally fitted data. […]
as §3

| Binder | binding result (human VISTA protein) | EC50 [1] | Fold increase in EC50 relative to 1-1-A1_BM [1] | Fold increase in IC50 relative to 1-1-A1_BM [2] | IC50 [2] | Kd [3] | koff [3] | kon [3] | koff [4] | kon [4] | Kd [5] |
| --- | --- | --- | --- | --- | --- | --- | --- | --- | --- | --- | --- |
| 11A1H10-IgG1 (antibody, V domains shown, Humanised version of clone 1-1-A1, IgG1/kappa; also called 1A11H10) VH: QVQLVQSGAEVKKPGASVKVSCKASGYTFTGYVIHWVRQAPGQGLEWMGYINPYNGGTNYAQKFKGRVTLTSDTSTTTAYMELSRLRSEDTAVYYCASGGYYTMDYWGQGTLVTVSS VL: DVVMTQSPLSLPVTLGQPASISCRSSQHLEYSNGYSYLHWYQQRPGQSPRLLIYKVSNRDSGVPDRFSGSGSGTDFTLKISRVEAEDVGVYYCSQSTHVPYTFGGGTKVEIKR | no binding (tested: 0.002 µg/ml to 200 µg/ml) | 38.1 µg/mL | 21200 fold | > 200 fold | > 100 µg/mL | 111 nM | 0.00898 s⁻¹ | 80900 M⁻¹ s⁻¹ |  |  |  |
| 11A1H5-IgG1 (antibody, V domains shown, Humanised version of clone 1-1-A1, IgG1/kappa; also called 1A11H5) VH: QVQLVQSGAEVKKPGASVKVSCKASGYTFTGYVIHWVRQAPGQGLEWMGYINPYNGGTNYAQKFKGRVTLTSDTSTTTAYMELSRLRSEDTAVYYCASGGYYTMDYWGQGTLVTVSS VL: DVVMTQSPLSLPVTLGQPASISCRSSQHLEYSNGYSYLHWYQQRPGQSPRLLIYKISNRFSGVPDRFSGSGSGTDFTLKISRVEAEDVGVYYCSQSTHVPYTFGGGTKVEIKR | no binding (tested: 0.002 µg/ml to 200 µg/ml) | 0.00015 µg/mL | 0.08 fold | 0.42 fold | 0.201 µg/mL | 9.28 nM | 0.0012 s⁻¹ | 129000 M⁻¹ s⁻¹ |  |  |  |
| 11A1H9-IgG1 (antibody, V domains shown, Humanised version of clone 1-1-A1, IgG1/kappa; also called 1A11H9) VH: QVQLVQSGAEVKKPGASVKVSCKASGYTFTGYVIHWVRQAPGQGLEWMGYINPYNGGTNYAQKFKGRVTLTSDTSTTTAYMELSRLRSEDTAVYYCASGGYYTMDYWGQGTLVTVSS VL: DVVMTQSPLSLPVTLGQPASISCRSSQHLEYSTGYSYLHWYQQRPGQSPRLLIYKVSNRDSGVPDRFSGSGSGTDFTLKISRVEAEDVGVYYCSQSTHVPYTFGGGTKVEIKR | no binding (tested: 0.002 µg/ml to 200 µg/ml) | 23.5 µg/mL | 13100 fold | > 200 fold | > 100 µg/mL | 23.3 nM | 0.00635 s⁻¹ | 273000 M⁻¹ s⁻¹ |  |  |  |
| 11A1H7-IgG1 (antibody, V domains shown, Humanised version of clone 1-1-A1, IgG1/kappa; also called 1A11H7) VH: QVQLVQSGAEVKKPGASVKVSCKASGYTFTGYVIHWVRQAPGQGLEWMGYINPYNGGTNYAQKFKGRVTLTSDTSTTTAYMELSRLRSEDTAVYYCASGGYYTMDYWGQGTLVTVSS VL: DVVMTQSPLSLPVTLGQPASISCRSSQHLEYSQGYSYLHWYQQRPGQSPRLLIYKVSNRDSGVPDRFSGSGSGTDFTLKISRVEAEDVGVYYCSQSTHVPYTFGGGTKVEIKR | no binding (tested: 0.002 µg/ml to 200 µg/ml) | 36.8 µg/mL | 20400 fold | > 200 fold | > 100 µg/mL |  |  |  |  |  |  |
| 11A1H11-IgG1 (antibody, V domains shown, Humanised version of clone 1-1-A1, IgG1/kappa; also called 1A11H11) VH: QVQLVQSGAEVKKPGASVKVSCKASGYTFTGYVIHWVRQAPGQGLEWMGYINPYNGGTNYAQKFKGRVTLTSDTSTTTAYMELSRLRSEDTAVYYCASGGYYTMDYWGQGTLVTVSS VL: DVVMTQSPLSLPVTLGQPASISCRSSQHLEYSNGYSYLHWYQQRPGQSPRLLIYKISNRFSGVPDRFSGSGSGTDFTLKISRVEAEDVGVYYCSQGTHVPYTFGGGTKVEIKR | no binding (tested: 0.002 µg/ml to 200 µg/ml) | 0.0021 µg/mL | 1.17 fold | 1.02 fold | 0.483 µg/mL |  |  |  |  |  |  |
| anti-CD47 clone 1-1-A1 IgG1 (antibody, V domains shown) VH: EVQLQQSGPDLVKPGASVKMSCKASGYTFTNYVIHWVKQKPGQGLEWIGYINPYNDGTKSNEKFKGKATLTSDKSSTSAYMELSSLTSEDSAVYYCASGGYYTMDYWGQGTSVTVSS VL: DVVMTQTPLSLPVSLGDQASISCRSSQHLEYSNGYSYLHWYLQKPGQSPQLLIYKISNRFSGVPDRFSGSGSGTDFTLKISRVEAEDLGVYFCSQSTHVPYTFGGGTKLEIKR |  |  |  |  |  |  |  |  | 0.00371 s⁻¹ | 451000 M⁻¹ s⁻¹ | 9 nM |
| 11A1H4-IgG1 (antibody, V domains shown, Humanised version of clone 1-1-A1, IgG1/kappa; also called 1A11H4) VH: QVQLVQSGAEVKKPGASVKVSCKASGYTFTNYVIHWVRQAPGQGLEWMGYINPYNDGTKYNQKFKGRVTLTSDTSTTTAYMELSRLRSDDTAVYYCASGGYYTMDYWGQGTLVASTK VL: DVVMTQSPLSLPVTLGQPASISCRSSQHLEYSNGYSYLHWYQQRPGQSPRLLIYKISNRFSGVPDRFSGSGSGTDFTLKISRVEAEDVGVYYCSQSTHVPYTFGGGTKVEIKR | no binding (tested: 0.002 µg/ml to 200 µg/ml) | 0.00018 µg/mL | 0.1 fold | 0.32 fold | 0.15 µg/mL |  |  |  |  |  |  |
| 11A1H3-IgG1 (antibody, V domains shown, Humanised version of clone 1-1-A1, IgG1/kappa; also called 1A11H3) VH: QVQLVQSGAEVKKPGASVKVSCKASGYTFTNYVMHWVRQAPGQGLEWMGYINPYNDGTKSNEKFQGRVTLTSDTSTSTAYMELSSLRSEDTAVYYCASGGYYTMDYWGQGTLVASTK VL: DVVMTQSPLSLPVTLGQPASISCRSSQHLEYSNGYSYLHWYQQRPGQSPRLLIYKISNRFSGVPDRFSGSGSGTDFTLKISRVEAEDVGVYYCSQSTHVPYTFGGGTKVEIKR | no binding (tested: 0.002 µg/ml to 200 µg/ml) | 0.00022 µg/mL | 0.12 fold |  |  | 3.39 nM | 0.000904 s⁻¹ | 266000 M⁻¹ s⁻¹ |  |  |  |
| 11A1H6-IgG1 (antibody, V domains shown, Humanised version of clone 1-1-A1, IgG1/kappa; also called 1A11H6) VH: QVQLVQSGAEVKKPGASVKVSCKASGYTFTNYVIHWVRQAPGQGLEWMGYINPYNDGTKYNQKFKGRVTLTSDTSTTTAYMELSRLRSDDTAVYYCASGGYYTMDYWGQGTLVASTK VL: DVVMTQSPLSLPVTLGQPASISCRSSQHLEYSQGYSYLHWYQQRPGQSPRLLIYKVSNRDSGVPDRFSGSGSGTDFTLKISRVEAEDVGVYYCSQSTHVPYTFGGGTKVEIKR | no binding (tested: 0.002 µg/ml to 200 µg/ml) | 13.4 µg/mL | 7440 fold | > 200 fold | > 100 µg/mL | 134 nM | 0.0144 s⁻¹ | 108000 M⁻¹ s⁻¹ |  |  |  |
